Seven substances from the supplement of paper PMC5998384 can be followed below.

Series [1] relates to HeLa Kyoto. In words: solubility in G1/S (NP-40 vs SDS abundance) (log2 ratio); higher = more soluble. Particulars: cell cycle stage: G1/S.
In series [2] the test system is HeLa Kyoto. In words: melting temperature (median over replicates), in situ; higher = more thermally stable.
The subject of series [3] is HeLa Kyoto. Put plainly: solubility change mitosis vs G1/S (difference of NP-40 vs SDS log2 ratios) (log2 ratio difference); higher = more soluble in mitosis.
Series [4] concerns HeLa Kyoto. Put plainly: thermal stability score vs G1/S (z-score of summed log2 fold changes over temperatures); higher = more thermally stable than in G1/S.
Where [5] appears, read: cell cycle stage: early G1 (4.5 h after nocodazole release).
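Throughout, for melting temperature (median over replicates), in situ: HeLa Kyoto cells synchronized by double thymidine or nocodazole block, proteins quantified by TMT10plex mass spectrometry, three independent biological replicates.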
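Throughout, for solubility change mitosis vs G1/S (difference of NP-40 vs SDS log2 ratios): synchronized HeLa Kyoto cells (double thymidine block for G1/S, nocodazole release for mitosis), protein amounts in NP-40 versus SDS lysates quantified by mass spectrometry, three biological replicates.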
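Throughout, for solubility in G1/S (NP-40 vs SDS abundance): HeLa Kyoto cells arrested at G1/S by double thymidine block, proteins quantified by TMT10plex mass spectrometry in mild NP-40 versus SDS extracts, three biological replicates.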
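Throughout, for thermal stability score vs G1/S (z-score of summed log2 fold changes over temperatures): synchronized HeLa Kyoto cells, proteins quantified by TMT10plex mass spectrometry, three biological replicates, mitosis taken 0.5 h after nocodazole release, G1/S directly after double thymidine block.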

ARFGAP2, sequence (chain, as listed by the source): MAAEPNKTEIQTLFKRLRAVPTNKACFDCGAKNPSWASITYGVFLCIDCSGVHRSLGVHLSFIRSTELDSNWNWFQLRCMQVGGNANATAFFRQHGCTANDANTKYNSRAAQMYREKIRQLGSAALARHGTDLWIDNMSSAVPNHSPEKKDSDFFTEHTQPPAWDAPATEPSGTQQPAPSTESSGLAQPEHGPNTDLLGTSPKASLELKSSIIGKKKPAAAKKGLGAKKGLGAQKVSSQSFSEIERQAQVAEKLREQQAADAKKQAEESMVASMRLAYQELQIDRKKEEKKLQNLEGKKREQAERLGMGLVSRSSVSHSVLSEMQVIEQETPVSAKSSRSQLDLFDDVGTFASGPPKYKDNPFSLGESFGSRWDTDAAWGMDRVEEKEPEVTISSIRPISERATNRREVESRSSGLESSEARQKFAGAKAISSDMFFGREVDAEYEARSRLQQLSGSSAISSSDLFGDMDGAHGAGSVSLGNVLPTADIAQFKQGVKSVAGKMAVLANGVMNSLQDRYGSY

Turning to ARFGAP2, the “solubility in G1/S (log2)” value in the series with HeLa Kyoto [1] worked out at 0.205. Moreover, the melting temperature with HeLa Kyoto [2] (cell cycle stage: G1/S) worked out at 49.6 °C; in the series with HeLa Kyoto [2] (cell cycle stage: mitosis), 49.4 °C. For the same substance, the “solubility change mitosis (log2)” value in the series with HeLa Kyoto [3] is -0.11. Besides, the thermal stability score is -0.318 with HeLa Kyoto [4] (setting [5]) and -0.233 in the series on HeLa Kyoto [4] (cell cycle stage: mitosis).
Regarding “MSLMVSAGRGLGAVWSPTHVQVTVLQARGLRAKGPGGTSDAYAVIQVGKEKYATSVSERSLGAPVWREEATFELPSLLSSGPAAAATLQLTVLHRALLGLDKFLGRAEVDLRDLHRDQGRRKTQWYKLKSKPGKKDKERGEIEVDIQFMRNNMTASMFDLSMKDKSRNPFGKLKDKIKGKNKDSGSDTASAIIPSTTPSVDSDDESVVKDKKKKSKIKTLLSKSNLQKTPLSQSMSVLPTSKPEKVLLRPGDFQSQWDEDDNEDESSSASDVMSHKRTASTDLKQLNQVNFTLPKKEGLSFLGGLRSKNDVLSRSNVCINGNHVYLEQPEAKGEIKDSSPSSSPSPKGFRKKHLFSSTENLAAGSWKEPAEGGGLSSDRQLSESSTKDSLKSMTLPSYRPAPLVSGDLRENMAPANSEATKEAKESKKPESRRSSLLSLMTGKKDVAKGSEGENPLTVPGREKEGMLMGVKPGEDASGPAEDLVRRSEKDTAAVVSRQGSSLNLFEDVQITEPEAEPESKSEPRPPISSPRAPQTRAVKPRLEVSPEAQPTARLPSPTDSPSSLPPLPSSSGQASVPSELGHGADTQSSESPSVFSSLSSPIAAPISTSTPIESWPLVDRGQAKSEGPPLLPKAELQTESLTPVPNSGSSALGSLFKQPSFPANKGTEDSLMGRTRETGTEKNTSSLELEESLPEQPETGRQEEELPRFPCKKQDYSPSSGEAQEVPFALSLSSDGAVSPVGELAAGGDRDLESQAGSLVESKARDAAEEVAPPLPMGASVPSIDSMMRKLEEMGLNLRKDQKKTKKRVSFSEQLFTEEAVAGAALLVEGHSSCPQELNPAWSVAGNASDGEPPESPHAEDSERESVTTPGPATCGAPASPADHLLLPSQEESFSEVPMSEASSAKDTPLFRMEGEDALVTQYQSKASDHEGLLSDPLSDLQLVSDFKSPIMADLNLSLPSIPEVASDDERIDQVEDDGDQVEDDGETAKSSTLDIGALSLGLVVPCPERGKGPSGEADRLVLGEGLCDFRLQAPQASVTAPSEQTTEFGIHKPHLGKSSSLDKQLPGPSGGEEEKPMGNGSPSPPPGTSLDNPVPSPSPSEIFPVTHSFPSSAHSDTHHTSTAESQKKATAEGSAGRVENFGKRKPLLQAWVSPSETHPVSAQPGAGTGSAKHRLHPVKPMNAMATKVANCSLGTATIISENLNNEVMMKKYSPSDPAFAYAQLTHDELIQLVLKQKETISKKEFQVRELEDYIDNLLVRVMEETPNILRIPTQVGKKAGKM [RAB11FIP1]”, in the series with HeLa Kyoto [1], the “solubility in G1/S (log2)” value was determined as 0.306. Also, the melting temperature stood at 51 °C with HeLa Kyoto [2] (cell cycle stage: G1/S) and 50.1 °C in the series on HeLa Kyoto [2] (cell cycle stage: mitosis). Further, in the series with HeLa Kyoto [3], the “solubility change mitosis (log2)” value is -0.196. Further, the results for the thermal stability score in the series with HeLa Kyoto [4] (setting [5]) and in the series with HeLa Kyoto [4] (cell cycle stage: mitosis) were 0.112 and 0.383, respectively.
Take “MPEAPPLLLAAVLLGLVLLVVLLLLLRHWGWGLCLIGWNEFILQPIHNLLMGDTKEQRILNHVLQHAEPGNAQSVLEAIDTYCEQKEWAMNVGDKKGKIVDAVIQEHQPSVLLELGAYCGYSAVRMARLLSPGARLITIEINPDCAAITQRMVDFAGVKDKVTLVVGASQDIIPQLKKKYDVDTLDMVFLDHWKDRYLPDTLLLEECGLLRKGTVLLADNVICPGAPDFLAHVRGSSCFECTHYQSFLEYREVVDGLEKAIYKGPGSEAGP [COMT]”: the “solubility in G1/S (log2)” value with HeLa Kyoto [1] is -0.0917. Also, the melting temperature in the series with HeLa Kyoto [2] (cell cycle stage: G1/S) was 52.9 °C; with HeLa Kyoto [2] (cell cycle stage: mitosis), 54.2 °C. In the series on HeLa Kyoto [3], the “solubility change mitosis (log2)” value was -0.128. The thermal stability score worked out at 3.01 in the series with HeLa Kyoto [4] (setting [5]) and 5.26 in the series on HeLa Kyoto [4] (cell cycle stage: mitosis).
As for “MCSLASGATGGRGAVENEEDLPELSDSGDEAAWEDEDDADLPHGKQQTPCLFCNRLFTSAEETFSHCKSEHQFNIDSMVHKHGLEFYGYIKLINFIRLKNPTVEYMNSIYNPVPWEKEEYLKPVLEDDLLLQFDVEDLYEPVSVPFSYPNGLSENTSVVEKLKHMEARALSAEAALARAREDLQKMKQFAQDFVMHTDVRTCSSSTSVIADLQEDEDGVYFSSYGHYGIHEEMLKDKIRTESYRDFIYQNPHIFKDKVVLDVGCGTGILSMFAAKAGAKKVLGVDQSEILYQAMDIIRLNKLEDTITLIKGKIEEVHLPVEKVDVIISEWMGYFLLFESMLDSVLYAKNKYLAKGGSVYPDICTISLVAVSDVNKHADRIAFWDDVYGFKMSCMKKAVIPEAVVEVLDPKTLISEPCGIKHIDCHTTSISDLEFSSDFTLKITRTSMCTAIAGYFDIYFEKNCHNRVVFSTGPQSTKTHWKQTVFLLEKPFSVKAGEALKGKVTVHKNKKDPRSLTVTLTLNNSTQTYGLQ [PRMT3]”, the “solubility in G1/S (log2)” value in the series with HeLa Kyoto [1] is -0.146. The figures for the melting temperature in the series on HeLa Kyoto [2] (cell cycle stage: G1/S) and with HeLa Kyoto [2] (cell cycle stage: mitosis) were 50.9 °C and 51 °C, respectively. In the series with HeLa Kyoto [3], the “solubility change mitosis (log2)” value is -0.212. The thermal stability score in the series on HeLa Kyoto [4] (setting [5]) was found to be 0.9; in the series on HeLa Kyoto [4] (cell cycle stage: mitosis), 1.13.
In the case of “MLTLQTWLVQALFIFLTTESTGELLDPCGYISPESPVVQLHSNFTAVCVLKEKCMDYFHVNANYIVWKTNHFTIPKEQYTIINRTASSVTFTDIASLNIQLTCNILTFGQLEQNVYGITIISGLPPEKPKNLSCIVNEGKKMRCEWDGGRETHLETNFTLKSEWATHKFADCKAKRDTPTSCTVDYSTVYFVNIEVWVEAENALGKVTSDHINFDPVYKVKPNPPHNLSVINSEELSSILKLTWTNPSIKSVIILKYNIQYRTKDASTWSQIPPEDTASTRSSFTVQDLKPFTEYVFRIRCMKEDGKGYWSDWSEEASGITYEDRPSKAPSFWYKIDPSHTQGYRTVQLVWKTLPPFEANGKILDYEVTLTRWKSHLQNYTVNATKLTVNLTNDRYLATLTVRNLVGKSDAAVLTIPACDFQATHPVMDLKAFPKDNMLWVEWTTPRESVKKYILEWCVLSDKAPCITDWQQEDGTVHRTYLRGNLAESKCYLITVTPVYADGPGSPESIKAYLKQAPPSKGPTVRTKKVGKNEAVLEWDQLPVDVQNGFIRNYTIFYRTIIGNETAVNVDSSHTEYTLSSLTSDTLYMVRMAAYTDEGGKDGPEFTFTTPKFAQGEIEAIVVPVCLAFLLTTLLGVLFCFNKRDLIKKHIWPNVPDPSKSHIAQWSPHTPPRHNFNSKDQMYSDGNFTDVSVVEIEANDKKPFPEDLKSLDLFKKEKINTEGHSSGIGGSSCMSSSRPSISSSDENESSQNTSSTVQYSTVVHSGYRHQVPSVQVFSRSESTQPLLDSEERPEDLQLVDHVDGGDGILPRQQYFKQNCSQHESSPDISHFERSKQVSSVNEEDFVRLKQQISDHISQSCGSGQMKMFQEVSAADAFGPGTEGQVERFETVGMEAATDEGMPKSYLPQTVRQGGYMPQ [IL6ST]”, the “solubility in G1/S (log2)” value in the series with HeLa Kyoto [1] stood at 0.0822. Besides, the figures for the melting temperature in the series with HeLa Kyoto [2] (cell cycle stage: G1/S) and with HeLa Kyoto [2] (cell cycle stage: mitosis) were 53.9 °C and 56.2 °C, respectively. Besides, the “solubility change mitosis (log2)” value with HeLa Kyoto [3] was determined as 0.0736. Also, the thermal stability score is -2.55 in the series with HeLa Kyoto [4] (setting [5]) and -3.18 with HeLa Kyoto [4] (cell cycle stage: mitosis).
Turning to “MWTLVSWVALTAGLVAGTRCPDGQFCPVACCLDPGGASYSCCRPLLDKWPTTLSRHLGGPCQVDAHCSAGHSCIFTVSGTSSCCPFPEAVACGDGHHCCPRGFHCSADGRSCFQRSGNNSVGAIQCPDSQFECPDFSTCCVMVDGSWGCCPMPQASCCEDRVHCCPHGAFCDLVHTRCITPTGTHPLAKKLPAQRTNRAVALSSSVMCPDARSRCPDGSTCCELPSGKYGCCPMPNATCCSDHLHCCPQDTVCDLIQSKCLSKENATTDLLTKLPAHTVGDVKCDMEVSCPDGYTCCRLQSGAWGCCPFTQAVCCEDHIHCCPAGFTCDTQKGTCEQGPHQVPWMEKAPAHLSLPDPQALKRDVPCDNVSSCPSSDTCCQLTSGEWGCCPIPEAVCCSDHQHCCPQGYTCVAEGQCQRGSEIVAGLEKMPARRASLSHPRDIGCDQHTSCPVGQTCCPSLGGSWACCQLPHAVCCEDRQHCCPAGYTCNVKARSCEKEVVSAQPATFLARSPHVGVKDVECGEGHFCHDNQTCCRDNRQGWACCPYRQGVCCADRRHCCPAGFRCAARGTKCLRREAPRWDAPLRDPALRQLL [GRN]”, in the series on HeLa Kyoto [1], the “solubility in G1/S (log2)” value came to 0.135. Further, the figures for the melting temperature with HeLa Kyoto [2] (cell cycle stage: G1/S) and in the series with HeLa Kyoto [2] (cell cycle stage: mitosis) were 54.9 °C and 60.5 °C, respectively. Moreover, the “solubility change mitosis (log2)” value with HeLa Kyoto [3] was -0.134. Besides, the figures for the thermal stability score in the series with HeLa Kyoto [4] (setting [5]) and with HeLa Kyoto [4] (cell cycle stage: mitosis) were -2.57 and -3.69, respectively.
Regarding “MLLAVLLLLPLPSSWFAHGHPLYTRLPPSALQVLSAQGTQALQAAQRSAQWAINRVAMEIQHRSHECRGSGRPRPQALLQDPPEPGPCGERRPSTANVTRAHGRIVGGSAAPPGAWPWLVRLQLGGQPLCGGVLVAASWVLTAAHCFVGAPNELLWTVTLAEGSRGEQAEEVPVNRILPHPKFDPRTFHNDLALVQLWTPVSPGGSARPVCLPQEPQEPPAGTACAIAGWGALFEDGPEAEAVREARVPLLSTDTCRRALGPGLRPSTMLCAGYLAGGVDSCQGDSGGPLTCSEPGPRPREVLFGVTSWGDGCGEPGKPGVYTRVAVFKDWLQEQMSASSSREPSCRELLAWDPPQELQADAARLCAFYARLCPGSQGACARLAHQQCLQRRRRCELRSLAHTLLGLLRNAQELLGPRPGLRRLAPALALPAPALRESPLHPARELRLHSGSRAAGTRFPKRRPEPRGEANGCPGLEPLRQKLAALQGAHAWILQVPSEHLAMNFHEVLADLGSKTLTGLFRAWVRAGLGGRHVAFSGLVGLEPATLARSLPRLLVQALQAFRVAALAEGEPEGPWMDVGQGPGLERKGHHPLNPQVPPARQP [PRSS56]”, the “solubility in G1/S (log2)” value in the series on HeLa Kyoto [1] came out at 0.296. In addition, the values for the melting temperature with HeLa Kyoto [2] (cell cycle stage: G1/S) and with HeLa Kyoto [2] (cell cycle stage: mitosis) were 53.2 °C and 53.3 °C, respectively. In the series on HeLa Kyoto [3], the “solubility change mitosis (log2)” value is -0.116. The thermal stability score in the series on HeLa Kyoto [4] (setting [5]) was found to be 1.67; with HeLa Kyoto [4] (cell cycle stage: mitosis) it was 3.49.
